Tests used:
Format in all cases: in vivo, human
[1] = Phase I/II dose-escalation study: plasma pharmacokinetics; details: cycle 1, plasma, geometric mean (% CV)
Method: (§1) A first-in-human phase I/II dose-escalating study following a 3+3 dose-escalation design was conducted in order to test the safety of tisotumab vedotin in 27 subjects with locally advanced and/or metastatic cancer of various types including cervical cancer (FIG. 2). Tisotumab vedotin was administered by intravenous infusion at doses ranging from 0.3 mg/kg to 2.2 mg/kg on day 1 of a 21-day cycle for four cycles (i.e., each treatment cycle was 3 weeks). Patients with stable disease (SD) or better at the end of four cycles had the option to continue treatment with tisotumab vedotin for eight additional cycles (FIG. 2). Tumor evaluations were performed by CT scans every six weeks. In order to qualify for SD, results of the CT scan scheduled for week six needed to be SD or better. Two CT scans were performed outside the per-protocol defined window.
(§2) A primary objective of the study was to assess the safety and tolerability in a mixed population of patients with specified solid tumors. Adverse event (AE) severity was graded according to Common Terminology Criteria for Adverse Events (CTCAE) version 4.03. Secondary objectives of the study included determining the pharmacokinetic (PK) profile of tisotumab vedotin and preliminary evaluation of anti-tumor activity as assessed according to Response Evaluation Criteria in Solid Tumors [RECIST] version 1.1. Dose-limiting toxicities (DLTs) were determined during the first cycle and were defined as grade≥3 events possibly related to tisotumab vedotin. […] Tumor biopsies were required at baseline for TF expression which was assessed by immunohistochemistry utilizing tisotumab. TF staining intensity was determined using the H-scoring system.
The geometric means (% CV) of the time to reach Cmax (Tmax)(hr), maximum concentration (Cmax)(ng/mL), and area under the concentration time curve (AUC)0-t (hr*ng/mL) was measured for the pharmacokinetics (PK) portion of the study (Table 3). Low levels of unconjugated MMAE were measured in systemic circulation (FIG. 4).

[2] = tested on: subjects with locally advanced and/or metastatic cancer of various types; assay: Phase I/II dose-escalation study: safety and tolerability, adverse events (CTCAE v4.03) occurring up to 30 days after treatment
Method: as §1
Lyophilized vials containing 40 mg of tisotumab vedotin were stored in a refrigerator at 2° C. to 8° C. Tisotumab vedotin was reconstituted in 4 ml of water leading to a reconstituted solution comprising 10 mg/mL tisotumab vedotin, 30 mM histidine, 88 mM sucrose, and 165 mM D-mannitol. […] The reconstituted tisotumab vedotin was diluted into a 0.9% NaCl 100 mL infusion bag according to the dose calculated for the patient. Intravenous infusion was completed within 24 hours after the tisotumab vedotin vial had been reconstituted. A 0.2 μm in-line filter was used for the intravenous infusion. The entire 100 mL volume from the prepared infusion bag was administered. No dead volume was provided.
as §2
Inclusion criteria for eligible subjects included: patients with relapsed, advanced, and/or metastatic cancer who have failed available standard therapy; and measurable disease.
Exclusion criteria included known past or current coagulation defects; ongoing major bleeding; and presence of CTCAE grade≥2 peripheral neuropathy.

[3] = tested on: tisotumab vedotin treated patients; assay: Adverse events of special interest reported in tisotumab vedotin treated patients
From the text: Three adverse events of special interest are ocular adverse events, adverse events of peripheral neuropathy, and adverse events of bleeding. […] Severe cases (CTCAE grade 3) of conjunctivitis and keratitis are observed, however implementation of a comprehensive mitigation plan and preventive measures substantially reduce both the frequency and severity of ocular adverse reactions. In order to prevent ocular AEs, the following ocular pre-medication guidelines are followed: use of preservative-free lubricating eye drops from the start of treatment with tisotumab vedotin until the end of treatment; avoid use of contact lenses while treated with tisotumab vedotin; use of refrigerator-based eye cooling pads during infusion, e.g. THERA PEARL Eye Mask or similar, to be applied immediately before infusion in accordance with the instructions provided with the eye cooling pads; administration of local ocular vasoconstrictor before infusion (brimonidine tartrate 0.2% eye drops or similar, 3 drops in each eye immediately prior to start of infusion; otherwise to be used in accordance with the product prescribing information).
A mitigation plan, including dose reduction (see Table 9) and dose delay (i.e., hold dosing until event has improved to ≤grade 1), is in place to prevent onset of peripheral neuropathy as well as deterioration of pre-existing conditions. For AEs of bleeding: Bleeding events are considered of special interest due to the mode of action of tisotumab vedotin. […] Excluding epistaxis, no causal relation has been established for the majority of the reported bleeding events and treatment with tisotumab vedotin.

Substance: tisotumab vedotin
- AUC0-t ([1]; 0.3 mg/kg, N 3): 59216.8 (3%) hr * ng/ml
- Cmax ([1]; 0.3 mg/kg, N 3): 4782.7 (12%) ng/ml
- Tmax ([1]; 0.3 mg/kg, N 3): 1.5 (73%) hr
- AUC0-t ([1]; 0.6 mg/kg, N 3): 368432.7 (8%) hr * ng/ml
- Cmax ([1]; 0.6 mg/kg, N 3): 12195.3 (10%) ng/ml
- Tmax ([1]; 0.6 mg/kg, N 3): 1.2 (13%) hr
- AUC0-t ([1]; 0.9 mg/kg, N 3): 601926.2 (17%) hr * ng/ml
- Cmax ([1]; 0.9 mg/kg, N 3): 19811.6 (17%) ng/ml
- Tmax ([1]; 0.9 mg/kg, N 3): 1.3 (12%) hr
- AUC0-t ([1]; 1.2 mg/kg, N 3): 1084672.7 (9%) hr * ng/ml
- Cmax ([1]; 1.2 mg/kg, N 3): 34673.1 (19%) ng/ml
- Tmax ([1]; 1.2 mg/kg, N 3): 1.3 (12%) hr
- AUC0-t ([1]; 1.5 mg/kg, N 3): 794988.4 (19%) hr * ng/ml
- Cmax ([1]; 1.5 mg/kg, N 3): 23115.6 (21%) ng/ml
- Tmax ([1]; 1.5 mg/kg, N 3): 1.1 (9.6%) hr
- AUC0-t ([1]; 1.8 mg/kg, N 3): 1504823.8 (50%) hr * ng/ml
- Cmax ([1]; 1.8 mg/kg, N 3): 35416.3 (39%) ng/ml
- Tmax ([1]; 1.8 mg/kg, N 3): 1.2 (14%) hr
- AUC0-t ([1]; 2.0 mg/kg, N 3): 1256379.7 (33%) hr * ng/ml
- Cmax ([1]; 2.0 mg/kg, N 3): 32296.1 (22%) ng/ml
- Tmax ([1]; 2.0 mg/kg, N 3): 1.2 (8%) hr
- AUC0-t ([1]; 2.2 mg/kg, N 6): 2037070.5 (34%) hr * ng/ml
- Cmax ([1]; 2.2 mg/kg, N 6): 55530.3 (10%) ng/ml
- Tmax ([1]; 2.2 mg/kg, N 6): 1.1 (13%) hr
- AE leading to discontinuation ([2]; 0.3 mg/kg (n = 3)): 0 n
- AE leading to discontinuation ([2]; 0.6 mg/kg (n = 3)): 0 n
- AE leading to discontinuation ([2]; 0.9 mg/kg (n = 3)): 0 n
- AE with outcome of death ([2]; 0.9 mg/kg (n = 3)): 0 n
- Serious AE ([2]; 0.9 mg/kg (n = 3)): 0 n
- AE leading to discontinuation ([2]; 1.2 mg/kg (n = 3)): 0 n
- AE with outcome of death ([2]; 1.2 mg/kg (n = 3)): 0 n
- AE leading to discontinuation ([2]; 1.5 mg/kg (n = 3)): 0 n
- AE with outcome of death ([2]; 1.5 mg/kg (n = 3)): 0 n
- AE with outcome of death ([2]; 1.8 mg/kg (n = 3)): 0 n
- AE leading to discontinuation ([2]; 2.0 mg/kg (n = 3)): 0 n
- AE with outcome of death ([2]; 2.0 mg/kg (n = 3)): 0 n
- AE with outcome of death ([2]; 2.2 mg/kg (n = 6)): 0 n
- DLTs (diabetes mellitus type 2, mucositis, neutropenic fever, all grade 3) ([2]; 2.2 mg/kg dose cohort, in three patients, first cycle): Three
- Maximum tolerated dose (MTD) ([2]; IV, day 1 of 21-day cycle): 2.0 mg/kg
- tolerability ([2]; Patient 2, cervical cancer, 1.2 mg/kg): well tolerated and no severe AEs were reported
- discontinued due to AE: grade 1 pneumonitis ([2]; all 27 patients): 1 n
- discontinued due to AE: grade 2 peripheral swelling and grade 3 pain in extremity ([2]; all 27 patients): one
- discontinued due to AE: grade 3 Guillain-Barre syndrome ([2]; all 27 patients): 1 n
- discontinued due to AE: grade 3 abdominal pain ([2]; all 27 patients): 2 n
- discontinued due to AE: grade 3 diabetes mellitus ([2]; all 27 patients): 1 n
- discontinued due to AE: grade 3 fatigue ([2]; all 27 patients): 1 n
- grade 4 events ([2]; all 27 patients): no grade 4 events
- grade≥3 treatment-related AE: abdominal pain ([2]; all 27 patients): 3 n
- grade≥3 treatment-related AE: anemia ([2]; all 27 patients): 4 n
- grade≥3 treatment-related AE: fatigue ([2]; all 27 patients): 4 n
- grade≥3 treatment-related AE: hyponatraemia ([2]; all 27 patients): 3 n
- patients experienced grade≥3 treatment-related AEs ([2]; all 27 patients): 19 patients
- treatment-related AE: anaemia ([2]; all 27 patients): 41%
- treatment-related AE: epitaxis ([2]; all 27 patients): 48%
- treatment-related AE: fatigue ([2]; all 27 patients): 48%
- changes in coagulation parameters ([2]; all doses): No significant changes
- patients withdrew from treatment due to AEs ([2]; all doses, 27 patients): 15%
- patients withdrew from treatment due to death ([2]; all doses, 27 patients): 4%
- patients withdrew from treatment due to dose-limiting toxicities (DLTs) ([2]; all doses, 27 patients): 4%
- mean prothrombin time ([2]; by the end of the study (n=17), baseline 11.5 seconds (n=18)): 11.7 s
- mean activated partial thromboplastin time ([2]; by the end of the study (n=23), baseline 28.2 seconds (n=25)): 27.1 s
- AEs of grade 1-2 conjunctivitis ([3]; human, in vivo): frequently reported
- impact on activated partial thromboplastin time (aPTT) or prothrombin time (PT) ([3]; human, in vivo): no major impact
- peripheral neuropathy, grade of the reported cases ([3]; leading cause of permanent discontinuation): majority of the reported cases are grade 1-2
- Epistaxis ([3]; nearly all of the cases are grade 1): most common reported AE

Reference: US20240252673A1, “ANTI-TISSUE FACTOR ANTIBODY-DRUG CONJUGATES AND THEIR USE IN THE TREATMENT OF CANCER” (priority 2017, published 2024)
